Test results: the Human Domainome abundance scans (Beltran et al. 2025)
± gives the uncertainty stated by the source.

B1: Cytoplasmic polyadenylation element-binding protein 2, residues 513 to 575; numbered along this chain, Q7Z5Q1 (parent)
chain: KRVEVKPYVLDDQMCDECQGARCGGKFAPFFCANVTCLQYYCEFCWANIHSRAGREFHKPLVK

Variants of: B1
Assay: abundance fitness (aPCA) (normalised: wild type 0, dead -1); higher = more abundant; growth selection in yeast, the domain comes from the species named
Conditions: Homo sapiens
For Y41F, the abundance fitness was -0.088 ± 0.11. Variant Y40G has an abundance fitness of -0.474 ± 0.045. Y40W showed an abundance fitness of -0.059 ± 0.056. For Y40K, the abundance fitness was -0.186 ± 0.063. R2H showed an abundance fitness of -0.319 ± 0.088. R2T showed an abundance fitness of -0.115 ± 0.049. Work on K1F yielded an abundance fitness of -0.292 ± 0.11. K1T gave an abundance fitness of -0.036 ± 0.078. With K1Y the abundance fitness was -0.236 ± 0.088. With K26R the abundance fitness was -0.027 ± 0.035. In the case of K26L, the abundance fitness is reported as -0.138 ± 0.036. With K26Y the abundance fitness was -0.404 ± 0.084. R52S gave an abundance fitness of 0.085 ± 0.05. With R55E the abundance fitness was -0.142 ± 0.071. N34I gave an abundance fitness of -0.731 ± 0.11. Work on N34C yielded an abundance fitness of -0.354 ± 0.082. For N34G, the abundance fitness was -0.106 ± 0.05. Variant N34R has an abundance fitness of -0.207 ± 0.046. N34L gave an abundance fitness of -1.24 ± 0.093. K59I gave an abundance fitness of -0.3 ± 0.08. A47D showed an abundance fitness of 0.102 ± 0.06. A47Y gave an abundance fitness of -0.114 ± 0.088. In the case of A47V, the abundance fitness is reported as -0.192 ± 0.058. A47H gave an abundance fitness of -0.17 ± 0.061. With A47N the abundance fitness was 0.127 ± 0.11. E4F gave an abundance fitness of -0.208 ± 0.061. Variant E4A has an abundance fitness of -0.15 ± 0.039. Variant M14S has an abundance fitness of 0.098 ± 0.04. Variant M14F has an abundance fitness of -0.067 ± 0.072. Work on M14Q yielded an abundance fitness of -0.036 ± 0.053. Variant M14T has an abundance fitness of 0.069 ± 0.045. For M14Y, the abundance fitness was 0.082 ± 0.077. M14C gave an abundance fitness of -0.104 ± 0.072. Variant M14P has an abundance fitness of -0.007 ± 0.05. F30C gave an abundance fitness of -0.322 ± 0.061. In the case of F30I, the abundance fitness is reported as -0.161 ± 0.079. Variant F30V has an abundance fitness of -0.219 ± 0.049. Variant P7D has an abundance fitness of 0.132 ± 0.097. P7I showed an abundance fitness of -1.07 ± 0.32. With P7R the abundance fitness was -0.125 ± 0.033. Variant P7A has an abundance fitness of -0.227 ± 0.056. With L38N the abundance fitness was 0.219 ± 0.071. In the case of L38D, the abundance fitness is reported as -0.054 ± 0.052. L38G showed an abundance fitness of -0.006 ± 0.039. Work on K63M yielded an abundance fitness of -0.111 ± 0.14. In the case of W46E, the abundance fitness is reported as -0.658 ± 0.17. W46I gave an abundance fitness of -0.444 ± 0.074. Variant W46N has an abundance fitness of -0.33 ± 0.04. Work on W46T yielded an abundance fitness of -0.558 ± 0.052. Variant G54K has an abundance fitness of -0.195 ± 0.1. G54V showed an abundance fitness of -0.32 ± 0.039. For E43C, the abundance fitness was -0.25 ± 0.051. Variant E43S has an abundance fitness of 0.018 ± 0.04. With E43M the abundance fitness was -0.309 ± 0.05. For E43A, the abundance fitness was -0.3 ± 0.067. In the case of E43L, the abundance fitness is reported as -0.395 ± 0.044. Work on G20T yielded an abundance fitness of -0.571 ± 0.072. C45S showed an abundance fitness of -1.1 ± 0.094. With C45P the abundance fitness was -0.932 ± 0.1. In the case of C45L, the abundance fitness is reported as -1.14 ± 0.081. With Y8H the abundance fitness was -0.036 ± 0.079. For Y8G, the abundance fitness was 0.154 ± 0.042. Variant C42V has an abundance fitness of -0.849 ± 0.11. For C42A, the abundance fitness was -0.593 ± 0.11. C42P showed an abundance fitness of -0.826 ± 0.08. Variant C42R has an abundance fitness of -1 ± 0.091. Work on C42T yielded an abundance fitness of -1.11 ± 0.093. In the case of A33S, the abundance fitness is reported as 0.061 ± 0.036. Variant A33G has an abundance fitness of -0.047 ± 0.035. In the case of A33F, the abundance fitness is reported as -0.336 ± 0.078. Variant L10Q has an abundance fitness of 0.121 ± 0.051. Q39F gave an abundance fitness of -0.472 ± 0.089. Q39S gave an abundance fitness of 0.016 ± 0.045. Variant Q39P has an abundance fitness of -0.799 ± 0.091. In the case of Q39E, the abundance fitness is reported as -0.13 ± 0.06. Variant Q39R has an abundance fitness of 0.129 ± 0.045. A53C gave an abundance fitness of -0.091 ± 0.068. For A53D, the abundance fitness was 0.02 ± 0.088. A53L gave an abundance fitness of -0.092 ± 0.033. For A53W, the abundance fitness was -0.287 ± 0.049. Work on V5S yielded an abundance fitness of 0.105 ± 0.038. Work on V5Q yielded an abundance fitness of 0.077 ± 0.068. F27E showed an abundance fitness of -0.09 ± 0.051. C37W gave an abundance fitness of -0.952 ± 0.092.
